Biological target: T1, IrtA, full length (subunit of full-length Mtb IrtAB) (M. tuberculosis H37Rv, UniProt P9WQJ9 1-859)
T1 construct: also called Rv1348
T1 sequence: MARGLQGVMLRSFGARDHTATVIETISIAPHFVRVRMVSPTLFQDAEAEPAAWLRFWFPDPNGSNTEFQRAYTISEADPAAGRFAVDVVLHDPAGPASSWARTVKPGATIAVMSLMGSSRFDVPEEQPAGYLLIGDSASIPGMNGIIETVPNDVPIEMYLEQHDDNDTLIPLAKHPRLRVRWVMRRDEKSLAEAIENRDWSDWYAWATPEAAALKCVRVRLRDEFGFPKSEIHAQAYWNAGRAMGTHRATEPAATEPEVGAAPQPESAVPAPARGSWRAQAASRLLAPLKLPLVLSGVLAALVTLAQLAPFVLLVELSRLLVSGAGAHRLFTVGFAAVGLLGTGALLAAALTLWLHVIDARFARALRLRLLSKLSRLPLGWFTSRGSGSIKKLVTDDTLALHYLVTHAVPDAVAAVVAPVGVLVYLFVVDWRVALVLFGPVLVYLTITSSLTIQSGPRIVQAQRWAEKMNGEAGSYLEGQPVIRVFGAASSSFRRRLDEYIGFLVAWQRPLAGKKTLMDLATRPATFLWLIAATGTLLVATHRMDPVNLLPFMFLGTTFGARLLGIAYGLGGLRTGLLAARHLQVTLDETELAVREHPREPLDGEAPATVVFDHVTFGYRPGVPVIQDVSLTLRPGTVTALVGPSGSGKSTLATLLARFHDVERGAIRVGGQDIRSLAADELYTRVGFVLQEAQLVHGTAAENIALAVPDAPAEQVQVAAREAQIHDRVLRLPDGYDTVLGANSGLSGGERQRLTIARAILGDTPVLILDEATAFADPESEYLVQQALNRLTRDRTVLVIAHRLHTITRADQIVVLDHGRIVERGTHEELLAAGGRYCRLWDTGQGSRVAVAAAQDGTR
Experiment: cryo-EM structure; full-length IrtAB in digitonin, no nucleotide added; 20 mM MES, 150 mM NaCl, pH 6.5; inward-facing
Conditions: both partners purified

B1: IrtB with a C-terminal 10x His tag (subunit of Mtb IrtAB) (natural protein)
chain: MIRTWIALVPNDHRARLIGFALLAFCSVVARAVGTVLLVPLMAALFGEAPQRAWLWLGWLSAATVAGWVLDAVTARIGIELGFAVLNHTQHDVADRLPVVRLDWFTAENTATARQAIAATGPELVGLVVNLVTPLTSAILLPAVIALALLPISWQLGVAALAGVPLLLGALWASAAFARRADTAADKANTALTERIIEFARTQQALRAARRVEPARSLVGNALASQHTATMRLLGMQIPGQLLFSIASQLALIVLAGTTAALTITGTLTVPEAIALIVVMVRYLEPFTAVSELAPALESTRATLGRIGSVLTAPVMVAGSGTWRDGAVVPRIEFDDVAFGYDGGSGPVLDGVSFCLQPGTTTAIVGPSGCGKSTILALIAGLHQPTRGRVLIDGTDVATLDARAQQAVCSVVFQHPYLFHGTIRDNVFAADPGASDDQFAQAVRLARVDELIARLPDGANTIVGEAGSALSGGERQRVSIARALLKAAPVLLVDEATSALDAENEAAVVDALAADPRSRTRVIVAHRLASIRHADRVLFVDDGRVVEDGSISELLTAGGRFSQFWRQQHEAAEWQILAE
notes: IrtB (Rv1349) of Mycobacterium tuberculosis H37Rv, TMD and NBD; The same IrtB chain stands in full-length IrtAB and in IrtAB(ΔSID); also called Rv1349
- binding result: binds

Reference: paper doi:10.1101/2022.01.11.475891, “Structural insights as to how iron-loaded siderophores are imported into Mycobacterium tuberculosis by IrtAB” (bioRxiv, 2022)
